Biological target: T1, gp41 HR1 fragment, Ala541 to Leu581 (chain of gp41_(541–665)) (HIV-1 HXB2 group M subtype B, UniProt P04578 541-581)
T1 construct: HIV-1 HXB2 (group M subtype B) envelope glycoprotein, gp41 subunit, residues Ala541 to Leu581 (heptad repeat 1); also called core fragment HR1; source: E. coli Rosetta (DE3), fusion protein; pellets of HR1 and HR2 expressing bacteria mixed before lysis; complex purified (amylose, TEV digestion, Ni2+, anion exchange, SEC); not shown: Flag-tag (DDDDK), N-terminal, kept
T1 sequence (P04578 541-581): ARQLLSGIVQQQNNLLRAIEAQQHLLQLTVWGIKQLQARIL
Assay: SEC; purified complexes on a Superdex 200 (S200) column in buffer A (0.02 M Tris pH 8.0, 0.1 M NaCl); SDS-PAGE of the peak; the complexes were assembled by mixing bacteria before lysis and co-purified
Settings: both partners purified

B1: gp41 HR2 fragment, Met628 to Lys665 as printed (chain of gp41_(541–665)) (domain or fragment)
chain: MEWDREINNYTSLIHSLIEESQNQQEKNEQELLELDK
notes: HIV-1 HXB2 (group M subtype B) envelope glycoprotein, gp41 subunit, heptad repeat 2; also called core fragment HR2; source: E. coli Rosetta (DE3), fusion protein; pellets of HR1 and HR2 expressing bacteria mixed before lysis (HR2 in excess); complex purified (amylose, TEV digestion, Ni2+, anion exchange, SEC); not shown: Flag-tag (DDDDK), N-terminal, kept
B1: binds.

From publication PMC2865522, “Crystal Structure of HIV-1 gp41 Including Both Fusion Peptide and Membrane Proximal External Regions” (PLoS Pathogens, 2010)
